Measurements: PMC5477506
One block for each substance: values may come before it.

Assays:
[1] = target: CpTRIC, prokaryotic TRIC homologue from the bacterium Colwellia psychrerythraea (Colwellia psychrerythraea 34H); assay: cross-linking; purified protein in DDM (around 1 mg/ml in 30 ul) with glutaraldehyde (0, 0.00005%, 0.0001%, 0.0005%, 0.001%) at room temperature for 8 h; quenched with 50 mM Tris-Cl pH 8.0; 12% SDS-PAGE
[2] = target: CpTRIC, prokaryotic TRIC homologue from the bacterium Colwellia psychrerythraea (Colwellia psychrerythraea 34H); assay: SEC-MALS; analytical size-exclusion chromatography in detergent-containing mobile phases; multi-angle light scattering with refractive index detection used to analyse the oligomeric state
[3] = target: SaTRIC, prokaryotic TRIC homologue from the archaeon Sulfolobus acidocaldarius, wild type (Sulfolobus acidocaldarius); assay: crystal structure; SaTRIC purified in DM, crystallised in lipid cubic phase (monoolein); lattices P6(3), P321 and R32, one molecule per asymmetric unit, trimer about the crystallographic three-fold axis
[4] = target: SaTRIC, prokaryotic TRIC homologue from the archaeon Sulfolobus acidocaldarius, wild type (Sulfolobus acidocaldarius); assay: cross-linking; purified protein in DDM (around 1 mg/ml in 30 ul) with glutaraldehyde (0, 0.00005%, 0.0001%, 0.0005%, 0.001%) at room temperature for 8 h; quenched with 50 mM Tris-Cl pH 8.0; 12% SDS-PAGE
[5] = target: SaTRIC, prokaryotic TRIC homologue from the archaeon Sulfolobus acidocaldarius, wild type (Sulfolobus acidocaldarius); assay: SEC-MALS; analytical size-exclusion chromatography in detergent-containing mobile phases; multi-angle light scattering with refractive index detection used to analyse the oligomeric state
[6] = target: Se-Met CpTRIC (Colwellia psychrerythraea 34H); assay: crystal structure; Se-Met CpTRIC in octylmaltoside, crystallised from detergent micelles (38% PEG400, 0.1 M NaCl, 0.1 M CdCl2, 0.1 M Tris-HCl pH 8.5); space group R32, one protomer per asymmetric unit
[7] = target: Se-Met SaTRIC mutant (L148M) (Sulfolobus acidocaldarius); assay: crystal structure; SaTRIC purified in DM, crystallised in lipid cubic phase (monoolein); lattices P6(3), P321 and R32, one molecule per asymmetric unit, trimer about the crystallographic three-fold axis

stoichiometry N [1]: 3
stoichiometry N [2]: 3
Substance: CpTRIC, prokaryotic TRIC homologue from the bacterium Colwellia psychrerythraea (natural protein)

stoichiometry N [3]: 3
stoichiometry N [4]: 3
stoichiometry N [5]: 3
Substance: SaTRIC, prokaryotic TRIC homologue from the archaeon Sulfolobus acidocaldarius, wild type (natural protein)

stoichiometry N [6]: 3
Substance: Se-Met CpTRIC (natural protein)

stoichiometry N [7]: 3
Substance: Se-Met SaTRIC mutant (L148M) (natural protein)
